Data reported in the DeepSol protein solubility set.

Experiment: soluble on expression in E. coli; label from the status in PepcDB or PDB records

MAHHHHHHMKRFFKSDGTPYNRDAANNLYGSEHTHRGGVEALSEGVAAGQYGEHKPRAIMFVNKRPVEIIPQEENLLEVLEREGIRVPKFCYHPILSVAGNCRMCLVQVDGTQNLVVSCATVALPGMSIITDSRLVRDAREGNVELILINHPNDCPICEQATNCDLQNVSMNYGTDIPRYKEDKRAVQDFYFDPQTRVVLNRCIHCTRCVRFLNEHAQDFNLGMIGRGGLSEISTFLDELEVKTDNNMPVSQLCPVGKIYLGDADENNLIAEQLDVSYESECGDRGTVTLGK
soluble on expression in E. coli: not soluble

MENSNENDIVLTWWDWGHFVTYYARRSPVAQGSPNSGVAGYYLGLVDNGWAQSLGVDYVIVSLYDILKFEAIVDTAKLSRKWENISRADYGVDFLKLTESTGSILRFDSQYSTLIVKEGNIRVILSGKVVYPREAIIESNGRIKNLKYPARSGVYVYVNLDYGYAILEHHHHHH
soluble on expression in E. coli: not soluble

MRFITIAAVLLVSSLLIVEASSIRDKRQSCGCASQVQPSCSCQQATQPQQYSCSCQNTAPVQTSCSCAQPVQQVTYQVQTSQCAPACQQSCQNQCQFAPSMNECQSSCQQTCQTSSCYTQIAAPAPVQCQPSCMPACEQSCVAPAPVTVQCVPQCQQKCTQQCVQAQPIQQCQPQCQQQCVQQCAPTVAPQVINVNLGISAQCAPQCQQQCQQQCLLQQVPVQQCYQECTQPCQTTCQQAAPQCVQQCAPQCQQPSAPQCQQCQNTCQQYAPVCQQQCAPQCTLPSAPACQQCQTSCQQTQQCQQQCIPQCQQPAAPQCQQCQSACQSPVVAPQIVTVILEPSVSQSAQCVPQCQQSCQQQCIQQQQPMQQCAPACTQSCYQSCSTAQLVQMPCLTQSVNSCSCQQNYSPCGNGQCCKRM
soluble on expression in E. coli: not soluble

MKTRSEVFQFEKELKWEHPAPGIRRQIMGYDGQLMMVKVEFEKGAVGTLHEHYHSQATYVASGKFELTIGDRKEILSTGDGYYVAPDEPHGCVCLEAGVLIDTFSPMRADFLE
soluble on expression in E. coli: not soluble

MNARSTRFTQDEVLDLIIVGGGINGAGIAADATGRGLKVGLYDAKDFASATSSASSKLVHGGLRYLEHYEFRLVSEALAEREVLLKKAPHIVTPMRFRLPHRPFLRPAWMIRAGLFLYDNLGKRTSLPASHKVNLKAGSVTKPEMQIGFEYSDCWVDDARLVILNAMQAQEQGAEVLNYCTVEKAERMGDLWHVTLLDEQTQQRFERRSHALVNAAGPWVKQFLNENAHVSSPYGIRLIQGSHIIVPRIHDEPQAYILQNEDKRIVFVIPYLDDYSMIGTTDVEYKGDPRKVAITDAERDYLISIVNKHFMREIARSDIIAEFSGVRPLCDDESNSPQAITRDYTLSLDQQADEAPLLSIFGGKLTTYRKLGEAAMKHLAPFFPKMKAPWTADAPLPGGENFDYAALKNQLVAAFPFITESVIERWLRSYGSRTTQLLAGVTGIEDLGIAFSGELYQREIDYLCEKEFARHAQDIFWRRSKLGLNHDTSVVEEVESYLQQKFHAEQPLKATVLEHHHHHH
soluble on expression in E. coli: soluble

MTTPAVKMVVAYVTAPSKEVAMTVARTTVTEALAACANVIPEVTSVYKWQGKIEEDQEHVVILKTVESKVEELSARVRSLHPAETPCFFTLAIDKITPDFGGWIVDSTNSSTAKH
soluble on expression in E. coli: soluble

GSPASGTSLSAAIHRTQLWFHGRISREESQRLIGQQGLVDGLFLVRESQRNPQGFVLSLCHLQKVKHYLILPSEEEGRLYFSMDDGQTRFTDLLQLVEFHQLNRGILPCLLRHCCTRVAL
soluble on expression in E. coli: soluble

HSQITLRGNAINTVGELPAVGSPAPAFTLTGGDLGVISSDQFRGKSVLLNIFPSVDTPVSATSVRTFDERAAASGATVLCVSKDLPFAQKRFCGAEGTENVMPASAFRDSFGEDYGVTIADGPMAGLLARAIVVIGADGNVAYTELVPEIAQEPNYEAALAALGA
soluble on expression in E. coli: soluble

MNTICKMRDIYKALSIFETAFEEVYGISLNEAMVLCALREAGKEITSTAIAERTEMAPSHTSKVIRAVEDKGLIRRALGEVDKRQMYFSLTEAGKKRLNELDLDKVEIPEMLKPLI
soluble on expression in E. coli: not soluble

MVNREIVMDYILSCLQDLVENGVEIKPDSDLVNDLGLESIKVMDLLMMLEDRFDISIPINILLDVKTPAQLMETLLPWLENK
soluble on expression in E. coli: not soluble

MSWGTELWDQFDNLEKHTQWGIDILEKYIKFVKERTEIELSYAKQLRNLSKKYQPKKNSKEEEEYKYTSCKAFISNLNEMNDYAGQHEVISENMASQIIVDLARYVQELKQERKSNFHDGRKAQQHIETCWKQLESSKRRFERDCKEADRAQQYFEKMDADINVTKADVEKARQQAQIRHQMAEDSKADYSSILQKFNHEQHEYYHTHIPNIFQKIQEMEERRIVRMGESMKTYAEVDRQVIPIIGKCLDGIVKAAESIDQKNDSQLVIEAYKSGFEPPGDIEFEDYTQPMKRTVSDNSLSNSRGEGKPDLKFGGKSKGKLWPFIKKNKLMSLLTSPHQPPPPPPASASPSAVPNGPQSPKQQKEPLSHRFNEFMTSKPKIHCFRSLKRGLSLKLGATPEDFSNLPPEQRRKKLQQKVDELNKEIQKEMDQRDAITKMKDVYLKNPQMGDPASLDHKLAEVSQNIEKLRVETQKFEAWLAEVEGRLPARSEQARRQSGLYDSQNPPTVNNCAQDRESPDGSYTEEQSQESEMKVLATDFDDEFDDEEPLPAIGTCKALYTFEGQNEGTISVVEGETLYVIEEDKGDGWTRIRRNEDEEGYVPTSYVEVCLDKNAKDS
soluble on expression in E. coli: soluble

MRTKDIYRLELRKIKIDKRMMKRILRLGIPSGIQQSIISLSNVVVQANVNIFGSTVMAGFGAYNKVDGFVVLPMQSFCMAATTFTGQNIGAGKPERIREG
soluble on expression in E. coli: not soluble

SEPQEERETQVAAWLKKIFGDHPIPQYEVNPRTTEILHHLSERNRVRDRDVYLVIEDLKQKASEYESEAKYLQDLLMESVNFSPANLSSTGSRYLNALVDSAVALETKDTSLASFIPAVNDLTSDLFRTKSKSEEIKIELEKLEKNLTATLVLEKCLQEDVKKAELHLSTERAKVDNRRQNMDFLKAKSEEFRFGIKAAEEQLSARGMDASLSHQSLVALSEKLARLKQQTIPLKKKLESYLDLMPNPSLAQVKIEEAKRELDSIEAELTRRVDMMEL
soluble on expression in E. coli: soluble

GPGSMTYKLLAPLHPESARAQKIMVAAAYANVDVELKVCQYGQENETPEFARNCSPCMRFPSMQTEEGYLFESNAIMRHIARVEKSGAKLYGATPFESSQVDMWLDFASSELDAHNTPYLMETFAGIPAPESAMATLEESLAGLELWLETRTFLVGERMTVADISVAFALQWVYRMNVKHGEELTKKYRNAYRLYNTVMQQPKTVEVLKQWGATFGPAKAPKKAAEAKPKEGKKPKEAVEDEEEQPAKEEKKSNPLDALPPSSFVLDAYKREYSNTDTRTVAAPYFFEHYDAEGYTCFWARYKYNEDNKKQFMTANLVRGWFQRMEHVRKYAFGVALIIGEDAAHELVSFWVFRGKGMPEIVSEVVDTELFEWEEIKDVQAAKEKITDYLCWEGPTIPRPVLEGRCFK
soluble on expression in E. coli: soluble

MKYLAAYLLLVQGGNAAPSAADIKAVVESVGAEVDEARINELLSSLEGKGSLEEIIAEGQKKFATVPTGGASSAAAGAAGAAAGGDAAEEEKEEEAKEESDDDMGFGLFD
soluble on expression in E. coli: soluble

MFDSLAKAGKYLGQAAKLMIGMPDYDNYVEHMRVNHPDQTPMTYEEFFRERQDARYGGKGGARCC
soluble on expression in E. coli: soluble

MGSDKIHHHHHHMLPLVKLIRGQDNTIVEADLVELWQKHVDDYANKWKEQLKLHGQSDKFWDWEFKLEFIINRQANREGFAIEYEDETQGLMLIETQMHGSRLVEGKRLVYIDGIATAPWNRAYIQRPPKLKGVGTAFLAFARTRSLELGYEGRVGLHSLPGVEEFYDNQGMIDVGEDEDYDDLVYFEYGVFRSPV
soluble on expression in E. coli: not soluble

MSLAFKPARVIFEQDALKYPMGEKLYRFFRDKGTDVSFAASHNRVSAIPGRTRSEKYFEAKRTLVVGVRRTTAFETCKPSAHFQLPLATSCPGKCEYCYLLTNMGKKPYVRIYVNIEEILSAARGYIEDRKPQVTVFEGAATSDPVPVEPYTGALARAVEFFGGQEYGRFRFVTKFTEVDTLLDVPHNGHTRFRFSINTPEVIRRFEHATPPLAERLAAAWKVAAAGYPLGFLVAPIIMYDGWRDSYRDLFKTAAAGLNGKVYDLTFEFITHRFTKRAKGTILEVFPSTRLDMDEEARAFKFGQFGYGKYVYPKELFSDAKIYFEGLAGEYFPGSKVEYFVEGHHHHHH
soluble on expression in E. coli: not soluble

RAKAFIDAANQYSINELYLISHALLETGNGTSALANGLTYNGKTVYNMYGIGAYDSNPNYYGAKYAYEQGWFTPEAAIIGGAKFIGSSYIHNTAYNQDTLYKMRWSATATHQYATDIGWAYKQVNRMYSLYSLLDG
soluble on expression in E. coli: not soluble

PPRKKVATGRRDITKKSEGKPHPTQTYEHELLATQLSNKKMMPFKSQIRARSFDEYKDWVCHDGEEFLLILSGEVMFYSEFYEPVVLSEGDSVYYDANMGHMLTSVSEEDAQILWVTAK
soluble on expression in E. coli: not soluble

MSSPTSLEEDGDIKLKTRFQGQVVVLYARPPLILDDFFALLKDACKQHKKQDITVKWIDEDGDPISIDSQMELDEAVRCLNSSQEAELNIHVFVGKPELPGLPCQGEDKTVYRRGARRWKKIYLYNGHRFQAKRLNRRIQCFICHDYIWGIGRQGFRCVDCRLCVHKKCHRHVRTHCGQALQGPNIIPMAPASGSLKGARSNTSSSTTRSGGGIDNGAFHEHEIESPGSTSHDASRAMNGNGSSKWAVSLNDFRLLTVIGRGSYAKVVQAEHVSTRQIYAIKIIKKEMFNEDEDIDWVQTEKSVFEAASNYPFLVGLHSCFQTESRLFFVIEFVPGGDLMFHMQQQRKLPEEHARFYSGEIILALHFLHSRGIIYRDLKLDNVLIDAEGHIKLTDYGMCKENIKDGDLTSTFCGTPNYIAPEILRGDEYGFSVDWWALGVLMFEMMAGRSPFDIVGMQNSEENTEDYLFQIILERQIRIPRSLSVRASGILKGFLNKDPTERLGCKLDINEGLRDMKEHQFFRGFIDWEALEQKAVAPPYHPAVESDRDLTHFDHQFTDELPQLSPDNPDVIARIDQSEFDGFEYVNPLQMSREDSV
soluble on expression in E. coli: not soluble

MKERMQKTSAQAHDFPQRARTESEWYEGVQTFMWMTEDNIVEVPFDKEHLLEIILSPSNLNKAYKAVVRNNGSGGIDKMSCEQLLSWLKANKDELIISLQSGTYRPNPVRRVEIPKDNGKKRLLGIPTVVDRLVQQAINQVLTLIYERQFSKTSYGFRPQRGCHDALRKAQKIVSEGYIYVVDLDLERFFDTVSHSKLIEILSRTIKDGRVISLIHKYLRSGVINRGMFEMSTEGTPQGGPLSPLLSNIMLNELDKELERRGHPFVRYADDAMIFCKSKRAAKRVRESITLFIEGKLFLKVNHEKTVVSYVKGVKFLGYSFYVKKGDCILLVHSKSKNKMKSKLKELTSRSNGWGYEKRKQKLKDYIRGWIAYFCLAQMKRLCIETDEWLRRRIRMCIWKSWKNAKTRVANLKKCGVSEWQAYQWGNTRLGYWRVSNSPIVTFVMSNDKLRKAGYMEFMDCYLKWCPKLEHHHHHH
soluble on expression in E. coli: soluble

MGSDKIHHHHHHMSQLLYDNGTHKCIAFTDLVEGEGIQANQFLIVNNGEGMLLDPGGNLTYKNLLAEMASYFLPAHLDYVFASHEDPDIVASANGWLLITDAKILIANEWTRFLPHFCSKGMTAGRVIGIPAQGMRVNLAGQELFVVPAHYMHSVGNFQVYDPVSKILFSGDLGANLVSGHDAAKVIEGAEAFAAHRAATSMDGFHRRYMGGQKVCRLWTNMARGMDIEWIVPQHGASFKGRETVLAFLDWFEGLESGPDLLTQKDFQFPIPENL
soluble on expression in E. coli: not soluble
